Measurements taken from publication PMC12548415 (Journal of Virology, 2025).

Target: T1, raccoon dog transferrin receptor ectodomain (recombinant RDTfR, from residue 121, C-terminal 6x His) (raccoon dog)
T1 construct: transferrin receptor type 1 of the raccoon dog, ectodomain starting at amino acid residue 121 of XM_055316305; Cloned with the N-terminal signal peptide GP67; also called recombinant RDTfR protein; purified RDTfR; source: Sf9 cells (pFastBacI-RDTfR), purified (Ni-NTA, dialysed in PBS); not shown: His6, C-terminal, kept
Assay: BLI; virus immobilised on APS probe (Gator Prime), PBS as running buffer; three concentrations (serial dilutions) of RDTfR in PBST (PBS, 0.05% Tween-20) applied; global fit, 1:1 binding model
Details: both partners purified

B1: rRDPV-10 virus (rescued from the infectious cDNA clone pRDPV-10 of raccoon dog parvovirus strain RDPV/FLD/2010), capsid of VP2 (complex)
chain: MSDGAVQPDGGQPAVRNERATGSGNGSGGGGGGGSGGVGISTGTFNNQTEFKFLENGWVEITANSSRLVHLNMPESENYRRVVVNNMDKTAVNGNMALDDIHAQIVTPWSLVDANAWGVWFNPGDWQLIVNTMSELHLVSFEQEIFNVVLKTVSESATQPPTKVYNNDLTASLMVALDSNNTMPFTPAAMRSETLGFYPWKPTIPTPWRYYFQWDRTLIPSHTGTSGTPTNIYHGTDPDDVQFYTIENSVPVHLLRTGDEFATGTFFFDCKPCRLTHTWQTNRALGLPPFLNSLPQSEGATNFGDIGVQQDKRRGVTQMGNTNYITEATIMRPAEVGYSAPYYSFEASTQGPFKTPIAAGRGGAQTDENQAADGNPRYAFGRQHGQKTTTTGETPERFTYIAHQDTGRYPEGDWIQNINFNLPVTNDNVLLPTDPIGGKTGINYTNIFNTYGPLTALNNVPPVYPNGQIWDKEFDTDLKPRLHVNAPFVCQNNCPGQLFVKVAPNLTNEYDPDASANMSRIVTYSDFWWKGKLVFKAKLRASHTWNPIQQMSINVDNQFNYVPSNIGGMKIVYEKSQLAPRKLY
Kd: 137 nM | koff: 0.0071 s⁻¹ | kon: 51800 M⁻¹ s⁻¹
